We go through 15 molecules from patent publication US20210221899A1 (published 2021).

Holding throughout (experiment): SPR (Biacore T200), 100 nM mAb on NGF chip, similarity to parent mAb
For experiment [1], the target named is T1, human NGF (human, UniProt P01138 122-241).
T1 construct: also called human Nerve Growth Factor; hN
T1 chain: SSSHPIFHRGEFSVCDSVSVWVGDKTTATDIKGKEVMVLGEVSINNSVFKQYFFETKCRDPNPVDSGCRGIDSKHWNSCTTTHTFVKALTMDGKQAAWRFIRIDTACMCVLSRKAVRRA
The method, boiled down:
(§1)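 CDR alanine-scan mutants of the anti-NGF mAb were each run at 100 nM over an NGF-coated Biacore T200 chip. A threshold band was set from the mean response units of four parent-mAb replicates ±3 SD, covering both on- and off-rate phases. The score is the percentage of each mutant's data points falling inside that band.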

Experiment [2] has as its target T2, canine NGF (canine, UniProt Q29074 110-229 (pig entry), limits assumed).
T2 construct: The protein was secreted from CHO cells and purified; also called cNGF; canine β-NGF
T2 chain: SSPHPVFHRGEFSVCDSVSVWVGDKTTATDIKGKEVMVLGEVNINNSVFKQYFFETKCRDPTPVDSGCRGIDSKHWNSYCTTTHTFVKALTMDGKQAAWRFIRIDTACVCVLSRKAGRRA
The procedure, abridged:
as §1

Experiment [3] has as its target T3, rat NGF (rat, UniProt P25427 122-241).
T3 construct: also called rN
The method, boiled down:
as §1

T3 sequence (P25427 122-241 limits assumed): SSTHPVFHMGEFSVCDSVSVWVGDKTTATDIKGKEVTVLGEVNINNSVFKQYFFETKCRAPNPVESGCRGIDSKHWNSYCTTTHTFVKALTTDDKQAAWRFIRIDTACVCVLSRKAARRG

B1: can48L2VH_F113A (antibody, V domains shown)
VH: EVQLVESGGDLVKPGGSLRLSCVASGFTFSTYGINWVRQAPGKGLQWVAYISSGGSSTYYADPVKGRFTISRDDAKNMLYLQMNSLRAEDTAIYYCAGSRYTYAYGGGYEFHAWGQGTLVTVSS
VL: QAVLNQPASVSGALGQKVTISCSGSTMDIDIFGVSWYQQLPGKAPKLLVDSDGDRPSGIPDRFSGSRSGNSGTLTITGLQAEDEADYHCQSGDSTLGALAIFGGGTHVTVL
notes: CDR scanning mutant of ZTS-842 (48L2)
In the case of B1, the “Percent Similarity Score (KD on hN)” value in experiment [1] was determined as 98.5%. Further, the “Percent Similarity Score (KD on cN)” value in experiment [2] worked out at 33.7%. Further, the “Percent Similarity Score (KD on rN)” value in experiment [3] is 32.2%.

B2: can48L2VH_S52A (antibody, V domains shown)
VH: EVQLVESGGDLVKPGGSLRLSCVASGFTFSTYGINWVRQAPGKGLQWVAYIASGGSSTYYADPVKGRFTISRDDAKNMLYLQMNSLRAEDTAIYYCAGSRYTYAYGGGYEFHFWGQGTLVTVSS
VL: QAVLNQPASVSGALGQKVTISCSGSTMDIDIFGVSWYQQLPGKAPKLLVDSDGDRPSGIPDRFSGSRSGNSGTLTITGLQAEDEADYHCQSGDSTLGALAIFGGGTHVTVL
notes: as for B1
B2: the “Percent Similarity Score (KD on hN)” value in experiment [1] was 100%. Also, the “Percent Similarity Score (KD on cN)” value in experiment [2] came to 99.4%. Moreover, the “Percent Similarity Score (KD on rN)” value in experiment [3] amounted to 99.8%.

B3: can48L2VH_G54A (antibody, V domains shown)
VH: EVQLVESGGDLVKPGGSLRLSCVASGFTFSTYGINWVRQAPGKGLQWVAYISSAGSSTYYADPVKGRFTISRDDAKNMLYLQMNSLRAEDTAIYYCAGSRYTYAYGGGYEFHFWGQGTLVTVSS
VL: QAVLNQPASVSGALGQKVTISCSGSTMDIDIFGVSWYQQLPGKAPKLLVDSDGDRPSGIPDRFSGSRSGNSGTLTITGLQAEDEADYHCQSGDSTLGALAIFGGGTHVTVL
notes: as for B1
Consider B3, for which the “Percent Similarity Score (KD on hN)” value in experiment [1] is 100%. Also, the “Percent Similarity Score (KD on cN)” value in experiment [2] turned out to be 98.1%. In addition, in experiment [3], the “Percent Similarity Score (KD on rN)” value is 99.3%.

B4: can48L2VL_A100L (antibody, V domains shown)
VH: EVQLVESGGDLVKPGGSLRLSCVASGFTFSTYGINWVRQAPGKGLQWVAYISSGGSSTYYADPVKGRFTISRDDAKNMLYLQMNSLRAEDTAIYYCAGSRYTYAYGGGYEFHFWGQGTLVTVSS
VL: QAVLNQPASVSGALGQKVTISCSGSTMDIDIFGVSWYQQLPGKAPKLLVDSDGDRPSGIPDRFSGSRSGNSGTLTITGLQAEDEADYHCQSGDSTLGALLIFGGGTHVTVL
notes: as for B1
As to B4, the “Percent Similarity Score (KD on hN)” value in experiment [1] came out at 99.9%. Besides, in experiment [2], the “Percent Similarity Score (KD on cN)” value turned out to be 97.8%. In addition, the “Percent Similarity Score (KD on rN)” value in experiment [3] is 98.3%.

B5: can48L2VH_G55A (antibody, V domains shown)
VH: EVQLVESGGDLVKPGGSLRLSCVASGFTFSTYGINWVRQAPGKGLQWVAYISSGASSTYYADPVKGRFTISRDDAKNMLYLQMNSLRAEDTAIYYCAGSRYTYAYGGGYEFHFWGQGTLVTVSS
VL: QAVLNQPASVSGALGQKVTISCSGSTMDIDIFGVSWYQQLPGKAPKLLVDSDGDRPSGIPDRFSGSRSGNSGTLTITGLQAEDEADYHCQSGDSTLGALAIFGGGTHVTVL
notes: as for B1
Take B5: the “Percent Similarity Score (KD on hN)” value in experiment [1] turned out to be 100%. For the same molecule, in experiment [2], the “Percent Similarity Score (KD on cN)” value worked out at 99.3%. Moreover, in experiment [3], the “Percent Similarity Score (KD on rN)” value was found to be 99.7%.

B6: can48L2VL_D28A (antibody, V domains shown)
VH: EVQLVESGGDLVKPGGSLRLSCVASGFTFSTYGINWVRQAPGKGLQWVAYISSGGSSTYYADPVKGRFTISRDDAKNMLYLQMNSLRAEDTAIYYCAGSRYTYAYGGGYEFHFWGQGTLVTVSS
VL: QAVLNQPASVSGALGQKVTISCSGSTMAIDIFGVSWYQQLPGKAPKLLVDSDGDRPSGIPDRFSGSRSGNSGTLTITGLQAEDEADYHCQSGDSTLGALAIFGGGTHVTVL
notes: as for B1
For the molecule B6, the “Percent Similarity Score (KD on hN)” value in experiment [1] worked out at 99.6%. Further, the “Percent Similarity Score (KD on cN)” value in experiment [2] amounted to 97%. Further, the “Percent Similarity Score (KD on rN)” value in experiment [3] amounted to 97.7%.

B7: can48L2VL_D30A (antibody, V domains shown)
VH: EVQLVESGGDLVKPGGSLRLSCVASGFTFSTYGINWVRQAPGKGLQWVAYISSGGSSTYYADPVKGRFTISRDDAKNMLYLQMNSLRAEDTAIYYCAGSRYTYAYGGGYEFHFWGQGTLVTVSS
VL: QAVLNQPASVSGALGQKVTISCSGSTMDIAIFGVSWYQQLPGKAPKLLVDSDGDRPSGIPDRFSGSRSGNSGTLTITGLQAEDEADYHCQSGDSTLGALAIFGGGTHVTVL
notes: as for B1
In the case of B7, in experiment [1], the “Percent Similarity Score (KD on hN)” value came out at 99.7%. Further, the “Percent Similarity Score (KD on cN)” value in experiment [2] came to 98.3%. In addition, the “Percent Similarity Score (KD on rN)” value in experiment [3] is 98.7%.

B8: can48L2VH_H112A (antibody, V domains shown)
VH: EVQLVESGGDLVKPGGSLRLSCVASGFTFSTYGINWVRQAPGKGLQWVAYISSGGSSTYYADPVKGRFTISRDDAKNMLYLQMNSLRAEDTAIYYCAGSRYTYAYGGGYEFAFWGQGTLVTVSS
VL: QAVLNQPASVSGALGQKVTISCSGSTMDIDIFGVSWYQQLPGKAPKLLVDSDGDRPSGIPDRFSGSRSGNSGTLTITGLQAEDEADYHCQSGDSTLGALAIFGGGTHVTVL
notes: as for B1
Take B8: the “Percent Similarity Score (KD on hN)” value in experiment [1] is 51.2%. For the same molecule, the “Percent Similarity Score (KD on cN)” value in experiment [2] worked out at 40.3%. Further, in experiment [3], the “Percent Similarity Score (KD on rN)” value was 98.5%.

B9: can48L2VH_I51A (antibody, V domains shown)
VH: EVQLVESGGDLVKPGGSLRLSCVASGFTFSTYGINWVRQAPGKGLQWVAYASSGGSSTYYADPVKGRFTISRDDAKNMLYLQMNSLRAEDTAIYYCAGSRYTYAYGGGYEFHFWGQGTLVTVSS
VL: QAVLNQPASVSGALGQKVTISCSGSTMDIDIFGVSWYQQLPGKAPKLLVDSDGDRPSGIPDRFSGSRSGNSGTLTITGLQAEDEADYHCQSGDSTLGALAIFGGGTHVTVL
notes: as for B1
Take B9: the “Percent Similarity Score (KD on hN)” value in experiment [1] was determined as 81.8%. Moreover, in experiment [2], the “Percent Similarity Score (KD on cN)” value turned out to be 24.2%. The “Percent Similarity Score (KD on rN)” value in experiment [3] came to 37.2%.

B10: can48L2VH_S57A (antibody, V domains shown)
VH: EVQLVESGGDLVKPGGSLRLSCVASGFTFSTYGINWVRQAPGKGLQWVAYISSGGSATYYADPVKGRFTISRDDAKNMLYLQMNSLRAEDTAIYYCAGSRYTYAYGGGYEFHFWGQGTLVTVSS
VL: QAVLNQPASVSGALGQKVTISCSGSTMDIDIFGVSWYQQLPGKAPKLLVDSDGDRPSGIPDRFSGSRSGNSGTLTITGLQAEDEADYHCQSGDSTLGALAIFGGGTHVTVL
notes: as for B1
Regarding B10, the “Percent Similarity Score (KD on hN)” value in experiment [1] is 100%. Also, the “Percent Similarity Score (KD on cN)” value in experiment [2] worked out at 98.4%. Besides, the “Percent Similarity Score (KD on rN)” value in experiment [3] was found to be 99.7%.

B11: can48L2VH_S56A (antibody, V domains shown)
VH: EVQLVESGGDLVKPGGSLRLSCVASGFTFSTYGINWVRQAPGKGLQWVAYISSGGASTYYADPVKGRFTISRDDAKNMLYLQMNSLRAEDTAIYYCAGSRYTYAYGGGYEFHFWGQGTLVTVSS
VL: QAVLNQPASVSGALGQKVTISCSGSTMDIDIFGVSWYQQLPGKAPKLLVDSDGDRPSGIPDRFSGSRSGNSGTLTITGLQAEDEADYHCQSGDSTLGALAIFGGGTHVTVL
notes: as for B1
Regarding B11, the “Percent Similarity Score (KD on hN)” value in experiment [1] turned out to be 99.9%. In addition, the “Percent Similarity Score (KD on cN)” value in experiment [2] was determined as 99.3%. Further, the “Percent Similarity Score (KD on rN)” value in experiment [3] amounted to 99.8%.

B12: can48L2VL_A98L (antibody, V domains shown)
VH: EVQLVESGGDLVKPGGSLRLSCVASGFTFSTYGINWVRQAPGKGLQWVAYISSGGSSTYYADPVKGRFTISRDDAKNMLYLQMNSLRAEDTAIYYCAGSRYTYAYGGGYEFHFWGQGTLVTVSS
VL: QAVLNQPASVSGALGQKVTISCSGSTMDIDIFGVSWYQQLPGKAPKLLVDSDGDRPSGIPDRFSGSRSGNSGTLTITGLQAEDEADYHCQSGDSTLGLLAIFGGGTHVTVL
notes: as for B1
With B12, the “Percent Similarity Score (KD on hN)” value in experiment [1] worked out at 99.8%. The “Percent Similarity Score (KD on cN)” value in experiment [2] worked out at 97.3%. Also, the “Percent Similarity Score (KD on rN)” value in experiment [3] came to 98.4%.

B13: can48L2VH_T58A (antibody, V domains shown)
VH: EVQLVESGGDLVKPGGSLRLSCVASGFTFSTYGINWVRQAPGKGLQWVAYISSGGSSAYYADPVKGRFTISRDDAKNMLYLQMNSLRAEDTAIYYCAGSRYTYAYGGGYEFHFWGQGTLVTVSS
VL: QAVLNQPASVSGALGQKVTISCSGSTMDIDIFGVSWYQQLPGKAPKLLVDSDGDRPSGIPDRFSGSRSGNSGTLTITGLQAEDEADYHCQSGDSTLGALAIFGGGTHVTVL
notes: as for B1
With B13, the “Percent Similarity Score (KD on hN)” value in experiment [1] is 99.9%. Besides, the “Percent Similarity Score (KD on cN)” value in experiment [2] came out at 99.1%. For the same molecule, the “Percent Similarity Score (KD on rN)” value in experiment [3] is 99.7%.

B14: can48L2VH_T31A (antibody, V domains shown)
VH: EVQLVESGGDLVKPGGSLRLSCVASGFTFSAYGINWVRQAPGKGLQWVAYISSGGSSTYYADPVKGRFTISRDDAKNMLYLQMNSLRAEDTAIYYCAGSRYTYAYGGGYEFHFWGQGTLVTVSS
VL: QAVLNQPASVSGALGQKVTISCSGSTMDIDIFGVSWYQQLPGKAPKLLVDSDGDRPSGIPDRFSGSRSGNSGTLTITGLQAEDEADYHCQSGDSTLGALAIFGGGTHVTVL
notes: as for B1
In the case of B14, the “Percent Similarity Score (KD on hN)” value in experiment [1] was 99.9%. In addition, the “Percent Similarity Score (KD on cN)” value in experiment [2] was 99.6%. In addition, in experiment [3], the “Percent Similarity Score (KD on rN)” value was 99.9%.

B15: can48L2VH_S53A (antibody, V domains shown)
VH: EVQLVESGGDLVKPGGSLRLSCVASGFTFSTYGINWVRQAPGKGLQWVAYISAGGSSTYYADPVKGRFTISRDDAKNMLYLQMNSLRAEDTAIYYCAGSRYTYAYGGGYEFHFWGQGTLVTVSS
VL: QAVLNQPASVSGALGQKVTISCSGSTMDIDIFGVSWYQQLPGKAPKLLVDSDGDRPSGIPDRFSGSRSGNSGTLTITGLQAEDEADYHCQSGDSTLGALAIFGGGTHVTVL
notes: as for B1
Consider B15, for which the “Percent Similarity Score (KD on hN)” value in experiment [1] amounted to 100%. Further, in experiment [2], the “Percent Similarity Score (KD on cN)” value was 97.8%. The “Percent Similarity Score (KD on rN)” value in experiment [3] is 99.4%.
